We go through one substance from patent US20050282740.

The series has as its target GST-WW-domain of Pin1 (UniProt Q13526).

Sequence of GST-WW-domain of Pin1 (Q13526 1-54): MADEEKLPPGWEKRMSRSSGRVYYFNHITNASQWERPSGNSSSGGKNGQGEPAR

Take “Cdc25C synthesized in vitro and phosphorylated by Xenopus mitotic extracts”: the “dephosphorylation of precipitated Cdc25C by CIP” value is recorded as “CIP failed to dephosphorylate Cdc25C”.
